Results reported in the supplement of paper PMC7125110.
± gives the standard error. Variants at the floor of the assay were thinned out.

B1: glmS ribozyme (parent)
chain: AUAAAAGCGCCAGAACUACAGAAAUGUAGUUGACGAGGAGGAGGUUUAUCGAAUUUUCGGCGGAUGCCUCCAAA

How the values were obtained:
Details in all cases: with glucosamine-6-phosphate
glucosamine-6-phosphate [1] = variants of: B1; experiment: self-cleavage kobs at 640 uM GlcN6P; higher = faster cleavage; RNA array
Method in brief: (§1)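 Glucosamine-6-phosphate in HEPES/KCl/Mg(OAc)2 buffer, at 40 μM to 10 mM, was flowed over barcoded ribozyme variants transcribed in situ by E. coli RNA polymerase on sequenced MiSeq chips. Tracking was through a hybridised Cy3 probe at 37 °C. kobs, kcat and KM came from exponential decay fits and weighted Michaelis–Menten fits of normalised per-tile medians.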

glucosamine-6-phosphate [2] = variants of: B1; experiment: self-cleavage kobs at 2500 uM GlcN6P; higher = faster cleavage; RNA array
Method in brief: as §1

glucosamine-6-phosphate [3] = variants of: B1; experiment: self-cleavage kobs at 10000 uM GlcN6P; higher = faster cleavage; RNA array
Method in brief: as §1

Variant | self-cleavage kobs at 640 uM GlcN6P (glucosamine-6-phosphate [1]) [s⁻¹] | self-cleavage kobs at 2500 uM GlcN6P (glucosamine-6-phosphate [2]) [s⁻¹] | self-cleavage kobs at 10000 uM GlcN6P (glucosamine-6-phosphate [3]) [s⁻¹]
C10U U31C A52U | < 1e-05 |  | 
A12G A36U | < 1e-05 |  | 
A12U C58U C61G G62C A64G U65A G66U C67G U69C C70U | 7.34e-05 ± 2.4e-05 | 7.58e-05 ± 1.9e-05 | 
G13A A14C A42G C70U | 4.53e-05 ± 1.8e-05 | 9.61e-05 ± 1.4e-05 | 
A12C A15U A39G | 0.000865 ± 0.00025 | 0.00201 ± 0.00075 | 0.003 ± 0.00075
C10A C61G C67G C71G | 0.000346 ± 8.8e-05 | 0.000167 ± 8.1e-05 | 
A12C U31C A39G | 0.000185 ± 3.9e-05 | 0.00135 ± 0.00023 | 0.00124 ± 0.00028
G9U G32C A42G U45G | < 1e-05 | < 1e-05 | 
A12U C50U G59U | < 1e-05 | < 1e-05 | < 1e-05
C10G A12C G13A A14G A39U C70G | < 1e-05 |  | 
G13C G29A G40C | < 1e-05 |  | 
G9U G44C C58A | < 1e-05 |  | 
A12U U46C A52G A53G | 0.000183 ± 4.4e-05 | 0.00036 ± 8.9e-05 | 
C10U G35C G60A | < 1e-05 | < 1e-05 | 
C11U G29U G37C C70A | 0.000166 ± 5.6e-05 |  | 
G9C A64U | < 1e-05 |  | 
C10A A15G G32U C70G | 0.000197 ± 7.6e-05 |  | 
A12G U45C C50U | < 1e-05 | < 1e-05 | 
C11A U46G C61G | < 1e-05 | < 1e-05 | 
C11U G43A A48U A53C C61U | < 1e-05 | < 1e-05 | 
C11A A39U U45C G51C C61U | < 1e-05 | < 1e-05 | 
A12G U54A | 0.000125 ± 2.3e-05 | 0.000221 ± 4.5e-05 | 0.000878 ± 0.00013
A12G A39G C50A | < 1e-05 |  | 

Variant | self-cleavage kobs at 640 uM GlcN6P (glucosamine-6-phosphate [1]) [s⁻¹] | self-cleavage kobs at 2500 uM GlcN6P (glucosamine-6-phosphate [2]) [s⁻¹] | self-cleavage kobs at 10000 uM GlcN6P (glucosamine-6-phosphate [3]) [s⁻¹]
G9A G62U G66U | < 1e-05 | < 1e-05 | 
A12G U30A G44A | < 1e-05 |  | 
A12G C16G C50G C68G | 0.000104 ± 4.5e-05 |  | 
A12G G41A G59U | < 1e-05 | < 1e-05 | 
A12C G41A A48C | < 1e-05 |  | 
C11U G32C C50G A52U | < 1e-05 |  | 
G13A A14C U30G | 4.76e-05 ± 1.8e-05 |  | 
C11A C16U U69G | 0.000429 ± 0.00014 |  | 
G9U G62C C67U | < 1e-05 | < 1e-05 | 
C10G G40C C71G | < 1e-05 | < 1e-05 | 
C10G G41U U55A C58G G63U | < 1e-05 |  | 
A12U A52U G60A | < 1e-05 |  | 
C11G C71G | 0.000382 ± 0.00018 |  | 
C10A G63A U69A C71U | 0.000215 ± 6.3e-05 |  | 
G13A C34A C67U C70G | < 1e-05 | < 1e-05 | 
A12G A39C A42C | < 1e-05 |  | 
G13C G37U G43C | < 1e-05 | < 1e-05 | 
C11U A15U G38A A53U | < 1e-05 |  | 
A12C A14G C34G G38U U49G A64G | < 1e-05 | < 1e-05 | 
G9C G41U G44C | < 1e-05 |  | 
A12G U55A | 0.000161 ± 2.2e-05 | 0.000248 ± 4e-05 | 0.00094 ± 8.5e-05
C11A G37U A64G | < 1e-05 |  | 
A12G A48U G63U | < 1e-05 |  | 

Variant | self-cleavage kobs at 640 uM GlcN6P (glucosamine-6-phosphate [1]) [s⁻¹] | self-cleavage kobs at 2500 uM GlcN6P (glucosamine-6-phosphate [2]) [s⁻¹] | self-cleavage kobs at 10000 uM GlcN6P (glucosamine-6-phosphate [3]) [s⁻¹]
C11G G43C U45C | < 1e-05 | < 1e-05 | 
G9U U30C U65G C70U | < 1e-05 |  | 
C10U U49A U55A | < 1e-05 |  | 
A12G U45G A52U C61G | < 1e-05 |  | 
G13A G44C | < 1e-05 |  | 
C11U G38A C67G | 7.1e-05 ± 3.3e-05 |  | 
G9A G63U C70U | < 1e-05 |  | 
G9C A12C | < 1e-05 | < 1e-05 | < 1e-05
G9A G60A C68G | < 1e-05 |  | 
G13C A14G A42G | 0.000198 ± 6.9e-05 | 0.000379 ± 9.2e-05 | 
G9U G51U C71U | < 1e-05 |  | 
G9U U49G A52C A64C | < 1e-05 |  | 
A12U A15C C71A | 0.000661 ± 0.00015 | 0.0015 ± 0.00053 | 
A12G G32U G44C G60A C70G | < 1e-05 |  | 
A12U A53C C67U | 0.00253 ± 0.0006 |  | 
G13A G29C G66U | < 1e-05 |  | 
C10U G35U G51A | < 1e-05 |  | 
G9U A12G C61A | 3.47e-05 ± 1.5e-05 | 8.52e-05 ± 1.9e-05 | 
A12U G35U | < 1e-05 |  | 
A12U G29A U31C | 0.000169 ± 4.1e-05 | 0.00041 ± 0.00015 | 0.000943 ± 0.00018
A12C G35A C70U | < 1e-05 | < 1e-05 | 
A12C G38C U49C C50A | < 1e-05 | < 1e-05 | 
